Measured values taken from publication PMC4439124, “Hairy/Enhancer-of-Split MEGANE and Proneural MASH1 Factors Cooperate Synergistically in Midbrain GABAergic Neurogenesis” (PLoS ONE, 2015).

Biological target: T1, MGN (MEGANE), yeast two-hybrid fusion (mouse, UniProt Q7TS99 1-240)
T1 construct: The two Gal4 domains are alternatives: one fusion as bait (BD), another as prey (AD); also called Helt; BD-MGN; source: yeast two-hybrid fusion
T1 sequence (looked up): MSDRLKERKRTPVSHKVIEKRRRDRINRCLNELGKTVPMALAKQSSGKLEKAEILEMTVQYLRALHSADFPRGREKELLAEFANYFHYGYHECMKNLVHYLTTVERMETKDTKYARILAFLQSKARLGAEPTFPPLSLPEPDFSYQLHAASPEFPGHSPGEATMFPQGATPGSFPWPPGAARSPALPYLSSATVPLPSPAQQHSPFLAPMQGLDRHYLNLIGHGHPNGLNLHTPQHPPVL
Assay: two-hybrid; quantitative β-galactosidase assay on liquid cultures (X-gal; in parallel ONPG, absorbance at 420 nm), five independent transformants per pair, normalised against cell density and dilution
Settings: partners not purified

B1: MASH1, yeast two-hybrid fusion (natural protein, mouse, UniProt Q02067 1-231, looked up)
chain: MESSGKMESGAGQQPQPPQPFLPPAACFFATAAAAAAAAAAAAQSAQQQQPQAPPQQAPQLSPVADSQPSGGGHKSAAKQVKRQRSSSPELMRCKRRLNFSGFGYSLPQQQPAAVARRNERERNRVKLVNLGFATLREHVPNGAANKKMSKVETLRSAVEYIRALQQLLDEHDAVSAAFQAGVLSPTISPNYSNDLNSMAGSPVSSYSSDEGSYDPLSPEEQELLDFTNWF
notes: The two Gal4 domains are alternatives: one fusion as bait (BD), another as prey (AD); also called Ascl1; MASH1-AD; source: yeast two-hybrid fusion
What does the source list for B1?
fold β-galactosidase activity (strength of interaction) over the MASH1/MASH1 homodimer: 4 fold; fold β-galactosidase activity (strength of interaction) over the MGN/MGN homodimer: 4.4 fold
